{"source": "the DeepSol protein solubility set"}
{"experiment": "soluble on expression in E. coli; label from the status in PepcDB or PDB records"}
{"sequence": "MGSDKIHHHHHHMTSETVLEIRNVSKHFGAVKALTAVDFRLARGEVHALCGENGAGKSTLMNVIAGVLQPSEGEVLIEGAPVKIASPAVAQSLGIALVHQEIALCPDATIAENMFMAATNRRRSALMNYAQLERDAQAVMNRLAPIDVSQKVGDLPISSQQLVEIAKALTLDCRVLIFDEPTAALTETEAQVLFGIIRDLKARGISIIYISHRMAEVFSLCDRVTVFRDGRYVATEMVSDVTPDDVVRLMVGREISQLYPDKQPSSERLGEPILSVRDLGGERFRDVSFELRYGEILGVGGLIGSGRTEIAEGICALRPVTQGEIRLHDKVLRLRRYSDAAKAGVVYLSEDRKGSGVFLDLSIAQNIAALDLKALTSLGLLNSREERALAEDLTRRLGVRMGGVDMPVSSLSGGNQQKVAIAKQLAVDPKVILMDEPTRGIDVGAKSEIHRLLRELARAGIGILVISSELPELIGLCDRVLVVREGRIAGEVSGNEMTEEVIMRLASGIGPATETNLKASGHAA", "soluble on expression in E. coli": "not soluble"}
{"sequence": "MSLIELRDKTILIDGRPRLVLSGEVHYFRLRREDWQDRLDKLKAAGCNTVASYIPWLCHETVEGRIDLDGRSRPELDLGAFIDLCRANGLWFIARPGPFVMAELKNEGLPYWLYEKHPEIVPVGWDGKPATTHTVDYLAPGFLDAARRWYDAVMAVITPRLQPGGGNVIALQLDNEIGMLSWLSNCPDLTENVLADFAAWLKVRHRPESLRKRYPFDPDEPEARRAGIRSPAESYALALLRDLGHYMRDRFARYVATLRSWAETAGIRGIPFVVNIHGTGGGRALSFPIGISQLYPSYTQDFGYLSGSDFYLGNLTFDNFQDLYLCNAFMEAVHRPEQPLASMEFECGDGNYGNTYGNRLDPSAADFKARMCLAQGARLLNYYLFTGGHNYRLDPPPPDGDGRIAFTGERHGFAAPVDPDGRLNYSYPRLANLTRTVAAVADKLAAMWEEHDRVAFGFIPDYFMTESRHPASAAMATIVRNLEANRGPSAWETMARAMLLGGYRFGAVDLQNRPLDVKTTPVLALGSARYMDTAVQRKLADWLSAGGGLLLYGEVPLYGMEGEPCTLLAEALGTEISGFRQASERYFLALAADGWARPRPEVRSHFAQTFAAPLAEALLRVCDTGEICGFETAVGKGRAVVIGTAYPCDIALFRTALERLGAVAALRHDCENHGIFMTSTANAAGERFIHLLNLDGFDKRFHLYEHGRPLFDGHEIELRARDGVMLPLAMREGHHHHHH", "soluble on expression in E. coli": "not soluble"}
{"sequence": "MGSDKIHHHHHHMVKFIHCSDLHLDSPFKSKSHISPKIFEDVQKSAYESFKNIVDIALQQDVDFVIIAGDLFDSENRTLRAEIFLKQQFERLQNEQIFVYVCHGNHDPLSSKISSNWPDNVSVFSNKVETYEAITKSGETIYIHGFSYENRASYENKIDEYPSSQGQKGIHIGVLHGTYSKSSVNERYTEFILEDLNSKLYHYWALGHIHERQQLSDMPVINYSGNIQGRHFNEQGEKGCLLIEGDHLKLKTKFYPTQYIRFEEATIETDKTSKQGLYEVIQNFKEQVREEGKAFYRLTLVINSETLISPQDLLQVEEMITDYEENENQFVYIDELKIQYAQNDESPLVNEFSAELLVDQTVFDKAMSDLYLNPRASKFLDDYGTFDHTALVNRAEEILKAEMRGEQNDN", "soluble on expression in E. coli": "not soluble"}
{"sequence": "MTEKSLKLFIVLSRAYRSINDHMNKHIHKHGLNPTEFAVLELLYHKGDQPLQQIGDKILLASGSITYVVDKLEQKELLIRKASPTDRRVTFAQITEKGIGLLNDIFPDHAAEIDEMISVLSEEEVEMCTEMLKRVGLNAKQFHNK", "soluble on expression in E. coli": "not soluble"}
{"sequence": "GAMVETKCPNLDIVTSSGEFHCSGCVEHMPEFSYMYWLAKDMKSDEDTKFIEHLGDGINEDETVRTTDGGITTLRKVLHVTDTNKFAHYRFTCVLTTLDGVSKKNIWLK", "soluble on expression in E. coli": "soluble"}
{"sequence": "MGSDKIHHHHHHMSAIPQAARKRGRPVKGESATLRDELILKSAKLFRTQGYERTTVRDIAAAAGVQAGSWFYYFKTKQDILVAVMEQGMSNALARIEALDVEHLPARDAFRALVHTHLHTLVSPDHDFIPVLLYEWKSLDEAMQAKVLKLKDRYEAVWDGVIERLQAAGEWPAPTPIDRLLMFGALNWVAQWYKPDGALGLDALAEHAVRFLLRTAETPAPAPAGTAKRRRGVKAS", "soluble on expression in E. coli": "not soluble"}
{"sequence": "MTHYKYYEANVETNQVLVLLHGFLSDSRTYYNHIDKYTDICHVITIDLPGHGEDQSSMDETWNFDYITTLLDRILDKYKDKSITLFGYSMGGRVALYYAINGHIPISNLILESTSPGIKEEANQLERRLVDDARAKVLDIAGIELFVNDWEKLPLFQSQLELPVEIQHQIRLQRLSQSPQKMAKALRDYGTGQMPNLWPRLKEIKVPTLILAGEYDEKFVQIAKKMANLIPNSKCKLISATGHTIHVEDSDEFDTMILGFLKEEQND", "soluble on expression in E. coli": "not soluble"}
{"sequence": "MEILEEKPKEGKVKIKVETLDDLWHLYHIITPGDVVYAKTLRKQSQRSDSLRPEKVEVIPVFLGVKVEKINFHKFANQLRVTGPIIYASREDVPLGKYHTIAVEPGTIITLQKERWKPYYIERLKEAVEASKRAKVMIVTIEDGEAEMAIVREYGLDFIATIRHNLGGKRYNIKREDEERKFFHDVAKTMKDVMSRENIQRAIVAGPGFYKEDFYKFLKENYPDLASKIVLDDTSMGGRVGIYEVIKRGTVDKVYSESRIANEIKLVEKVIERIAKDEPVAYGMKEVEEAVNYGAVEILLVLDELLKGDNREKVEELMELARSLRSKVVVVSSEHEGGEKLKALGGIAGILRFKIK", "soluble on expression in E. coli": "soluble"}
{"sequence": "MTDQERIELQKNNPLHGLKLETLLQELVDFYGWDILDTAMRFNCFHTKPSIASSVKYLNKTEWAREKLENFYLYRFKRMPRASSEEFTLPPRARTFPHGLHPKEPMALTVDSILKSQAKAASAHKERTSRSRYNQR", "soluble on expression in E. coli": "not soluble"}
{"sequence": "MKEKEHQSIEWKESWQDEYLKWICGYANAYGGTIYIGTDDDGNVVGIDNARDLLERIPNKITDTMGIIVDVNLLYKGELEYLQIIVDKYPSLISFRGKYYYRSGSTMREITGKELERALLKTQGRTWDGVPLPKLTVADLKQDAIQLFKDKAVKRGRLTKEEVSVEDTILMDNLHLIDEDGYLIRAAMLAFYKDPEKWVTGSYIKIGYFGKSDSDLVYQDEVHGPLIEQVDKTVDLVYTKYMKALIDYEGVQRIEQFMFHKDAFREILLNAVVHKDYSSCNPIQISVYEDKIYIWNDGEMPPNLDSTDKLFMKHSSKPYNPKLANVFFKSGMIEAWGRGFEKIREACALYDGPLPEYEINEAGIMVLCKACDKYLGLLRNDGQHHGQCDQEGDHDEEQDIMRQIIAFCMEPKTASEIMQKFNLERSYFRRHYLNKMLKTGKLQRTEPDKPKSKNQKYYS", "soluble on expression in E. coli": "not soluble"}
{"sequence": "MKKKDRYTISELAREFEISTRTIRYYEEIGLLNPERTPGNQRIFSRKDRAKLKLILRGRRLGFSLEEIREMIEMYDVAGEPEQIRLTLKYGEKKLKEIEEKIRELELLKEDLLNLREMLVKRLEELEKGS", "soluble on expression in E. coli": "not soluble"}
{"sequence": "MGSDKIHHHHHHSCGGKKNSGQLSDTAVQIVKPEFPQIVPFETGIETEQEILLSEIADSIRYIPLETNNKCLIRGLKGSNIIRTKEYFFLPWIDKLFQYTKDGKFIRTLGRKGGGPGEFNWIMQIDVDEKKGLVYMLTTTGKINIYSMETGKFIRAMKVPNIEVSEFAMLRVQDTIAATFMRNNNGKRKERIYLSNLKGDTLKIFNRWDLFDLNSKYRWMISSDIDRYMFHYKSHTCYKEYYNDTLFTITQETLEPRYIFQMGKYSLPIECRFEYLNGDGKRFQEVAAPYIQYNTIETDSYIFMPYSNWAGEKEQERQMAIYDKKAKNCFKVSTGHIKNDLTPGLPLRPITALDSHTLLYVWEAPELLEKAEKTPSILQIEPLKGLNEDDNPVMMIVYLKQP", "soluble on expression in E. coli": "not soluble"}
{"sequence": "MQSLIGLMRPETGKKLENLNHFIQQFEKVLIAFSGGVDSSTLAAVCSNAGVEVLAVTVLSSVSPRREMEEAKRIAEELGVRHEFLKIDLMDEDFRRNDENRCYYCKRRVLSALVEEAKKRGIEVVLEGTNASDLSDHRPGYRAVRELDGVNSPWVEFGITKEEIREIARSMGYSFHDKPSMACLASRIPFGIEIDEEKLKMVDEAEEAVIELAGVKQVRVRNYDGVAVVEVAGDELRKLLNCAEKVRDKLKKIGFRAVLIDLEGYRSGKRLFKF", "soluble on expression in E. coli": "not soluble"}
{"sequence": "MRVEDVMVTDVDTIDITASLEDVLRNYVENAKGSSVVVKEGVRVGIVTTWDVLEAIAEGDDLAEVKVWEVMERDLVTISPRATIKEAAEKMVKNVVWRLLVEEDDEIIGVISATDILRAKMAKRY", "soluble on expression in E. coli": "soluble"}
{"sequence": "MLKVDGIDVFYGNIHALKGVSLEVNKGEIVTLIGANGAGKTTLLKTISGLLRPKNGDIVYEGASIAGKAAQTIVKQGISHVPEGRRVFANMTVEENLELGAFLRKDKEGIQQDFAKVFQLFPRLEERRKQLAGTLSGGEQQMLAIGRALMARPKLLLLDEPSMGLAPLLVKTIFRIIQEINESGTTILLVEQNAHMALSIAHRAYVLESGRVVLSGTASELQASEQVKQAYLGGH", "soluble on expression in E. coli": "soluble"}
{"sequence": "MPFKMSSKAQTIKIFNLRSDTNEFIGAGDAYIPPHTGLPANCTDIAPPDIPSSHIAVFDAETQTWNLKEDHRGETVYDTTTGNQMYISEPGPLPENVTSVSPGGGYKKWDSKAKAWVNDEGAEVAARLREAEGTKSRLLQMASGKIAPLQDAVDLGIATDDEKAQLDEWKKYRVLVNRVDTSNPDWPEQPV", "soluble on expression in E. coli": "not soluble"}
{"sequence": "MKFLPYIFLLCCGLWSTISFADEDYIEYRGISSNNRVTLDPLRLSNKELRWLASKKNLVIAVHKSQTATLLHTDSQQRVRGINADYLNLLKRALNIKLTLREYADHQKAMDALAEGEVDIVLSHLVTSPPLNNDIAATKPLIITFPALVTTLHDSMRPLTSPKPVNIARVANYPPDEVIHQSFPKATIISFTNLYQALASVSAGHNDYFIGSNIITSSMISRYFTHSLNVVKYYNSPRQYNFFLTRKESVILNEVLNRFVDALTNEVRYEVSQNWLDTGNLAFLNKPLELTEHEKQWIKQHPNLKVLENPYSPPYSMTDENGSVRGVMGDILNIITLQTGLNFSPITVSHNIHAGTQLSPGGWDIIPGAIYSEDRENNVLFAEAFITTPYVFVMQKAPDSEQTLKKGMKVAIPYYYELHSQLKEMYPEVEWIQVDNASAAFHKVKEGELDALVATQLNSRYMIDHYYPNELYHFLIPGVPNASLSFAFPRGEPELKDIINKALNAIPPSEVLRLTEKWIKMPNVTIDTWDLYSEQFYIVTTLSVLLVGSSLLWGFYLLRSVRRRKVIQGDLENQISFRKALSDSLPNPTYVVNWQGNVISHNSAFEHYFTADYYKNAMLPLENSDSPFKDVFSNAHEVTAETKENRTIYTQVFEIDNGIEKRCINHWHTLCNLPASDNAVYICGWQDITETRDLINALEVEKNKAIKATVAKSQFLATMSHEIRTPISSIMGFLELLSGSGLSKEQRVEAISLAYATGQSLLGLIGEILDVDKIESGNYQLQPQWVDIPTLVQNTCHSFGAIAASKSIALSCSSTFPEHYLVKIDPQAFKQVLSNLLSNALKFTTEGAVKITTSLGHIDDNHAVIKMTIMDSGSGLSQEEQQQLFKRYSQTSAGRQQTGSGLGLMICKELIKNMQGDLSLESHPGIGTTFTITIPVEISQQVATVEAKAEQPITLPEKLSILIADDHPTNRLLLKRQLNLLGYDVDEATDGVQALHKVSMQHYDLLITDVNMPNMDGFELTRKLREQNSSLPIWGLTANAQANEREKGLSCGMNLCLFKPLTLDVLKTHLSQLHQVAHIAPQYRHLDIEALKNNTANDLQLMQEILMTFQHETHKDLPAAFQALEAGDNRTFHQCIHRIHGAANILNLQKLINISHQLEITPVSDDSKPEILQLLNSVKEHIAELDQEIAVFCQKND", "soluble on expression in E. coli": "not soluble"}
{"sequence": "MSLNKQDGENTLQHEKSSSFGYWCSPSPEQLERLSLKQLAAVSNFVIGRRGYGCITFQHDVDLTAFTKSFREELFGKIVIFRSSKTVEVYPDEATKPMIGHGLNVPAIITLENVYPVDKKTKKPMKDTTKFAEFQVFDRKLRSMREMNYISYNPFGGTWTFKVNHFEGHHHHHH", "soluble on expression in E. coli": "soluble"}
